Test results as given in patent US20050277575A1, “Therapeutic compositions and methods for treating diseases that involve angiogenesis” (priority 2004, published 2005).
Several values for one entry are separate records, joined by “and”; a condition that tells them apart may be missing. Equal entries are not always repeated. Where two headings read alike, the source gives them in different places. One block for each compound: values may come before it. Where a SMILES comes first, the peptide text is derived from it.

Legend:
[1] = test system: Human cerebral endothelial cells (HCEC); test: Capillary tube formation in Matrigel, S100A4 induced angiogenesis; type: cell-based; conditions: primary HCEC in Matrigel
Excerpt: Human cerebral endothelial cells (HCEC) were isolated using previously described protocols (Stanimirovic, D., P. Morley, et al. (1996). “Angiotensin II-induced fluid phase endocytosis in human cerebromicrovascular endothelial cells is regulated by the inositol-phosphate signaling pathway.” J Cell Physiol 169(3): 455-67.). Purity of HCEC cultures generated by these procedures was routinely assessed by the immunocytochemical staining for Factor VIII-related antigen and the lack of staining for smooth muscle β-actin, and is estimated to be >95%. The morphological, phenotypic, biochemical and functional characteristics of these HCEC cultures have been described in detail previously (Muruganandam, A., L. M Herx, et al. (1997). “Development of immortalized human cerebromicrovascular endothelial cell line as an in vitro model of the human blood-brain barrier.” Faseb J 11(13): 1187-97).
HCEC were seeded (8×10^4 cells) on a semi-solid basement membrane matrix, Matrigel™ (Collaborative Biomedical Products, Bedford, Mass.)-coated 24-well plates and exposed to serum-free media containing various treatments. […] Confocal apertures for each recorded wavelength were adjusted to a full width half maximum of 20 μm. […] Eight to 32 individual optical sections were collected and the average was calculated. […]

S100A4 [2] = molecular target: T1, S100A4 (Homo sapiens, UniProt P26447); test: Modulation of S100A4 dependent tPA-mediated conversion of plasminogen to plasmin by peptides and chimera; type: biochemical; conditions: for IC50: peptides titrated 0.1-100 μM, 1 μM S100A4, read-out: IC50 for inhibition of accelerating effect of S100A4 on t-PA-dependent conversion of plasminogen to plasmin
T1 construct: GST (N); made in house; host or cells: E. coli ER2507
Procedure: (§1) The effects of peptide SEQ ID 6, peptide SEQ ID 38 and chimera SEQ ID 39 on acceleration oft-PA-mediated conversion of plasminogen to plasmin induced by S100A4 were measured. The kinetics of t-PA-mediated plasminogen activation were determined by measuring the amidolytic activity of plasmin formed during activation of plasminogen. All the experiments were done in 100 μl volume in 96-well plates in triplicates. Glu-plasminogen (Calbiochem) at the concentration of 100 nM was preincubated at 25° C. for 1 h in the presence or absence of 1 μM recombinant S100A4 in a buffer consisting of 50 mM Tris-HCl, pH 7.4, 100 mM NaCl and 5 mM CaCl2 or 5 mM EGTA. In some experiments, different concentrations of peptides or chimera were preincubated together with proteins. The reaction was initiated by addition of 5 nM t-PA (Calbiochem) and 125 μM chromogenic plasmin substrate, Chromozym PL (Roche). The reactions were monitored at 405 nm for 1.5 h in a SPECTRAmax PLUS^384 microplate spectrophotometer (Molecular Devices) under control of the SOFTmax PRO kinetic program (Molecular Devices). The initial rates of plasmin generation, during the first 10-15 min, were calculated using linear regression analysis of plots of A405 nm versus time 2. The initial rates of plasmin generation were reported in units (K) of A405 nm/min^2×10^3. […] The titration data were analyzed with the four-parameter logistic equation K=(A−D)/(1+(x/C)^B)D. If A, asymptotic minimum, =0, this equation is converted to the Michaelis-Menten equation K=D/(1+(C/[S])^B), where [S] is substrate concentration, D=Vmax, C=Km, and B is the Hill coefficient.
Peptides SEQ ID 6 and SEQ ID 38 inhibited the accelerating effect of S100A4 on t-PA-dependent conversion of plasminogen to plasmin in concentration—dependent manner.
On the other hand, chimera SEQ ID 39 additionally accelerated plasmin formation already accelerated by S100A4.

[3] = molecular target: T2, t-PA-mediated plasminogen activation (Homo sapiens, UniProt P00750); test: t-PA-mediated plasminogen conversion kinetics with and without S100A4 (Example 12); type: biochemical
T2 construct: purchased Calbiochem
Procedure: as §1
The addition of S100A4 to basal reaction (t-PA plus plasminogen) produced a significant increase in the plasminogen conversion rate. […] The stimulation of the plasminogen conversion by S100A4 was concentration-dependent with the half-maximal effect at 2.4 μM.
The kinetic parameters of t-PA-mediated plasminogen conversion were evaluated in the presence and absence of S100A4 as a function of plasminogen concentrations ranging from 3 nM to 3 μM.

[4] = molecular target: T2, t-PA-mediated plasminogen activation; test: t-PA-dependent conversion of plasminogen to plasmin, effect of S100A4 (Example 11); type: biochemical; conditions: with or without 2.5 μM S100A4; for Vmax: 150 nM plasminogen, 5 nM t-PA
Procedure: Non-active plasminogen can be converted to active protease plasmin by tissue type (t-PA) or urokinase type (u-PA) plasminogen activators. Except for its well-known fibrinolytic activity, plasmin also directly and indirectly, by activation of matrix metalloproteinases (MMPs), participates in the degradation of extracellular matrix that is important for the angiogenesis and tumor invasion. The kinetics of t-PA-mediated plasminogen activation was determined by measuring amidolytic activity of the plasmin generated during plasminogen activation. The reaction was performed with the plasmin substrate Chromozyme PL, tosyl-glycyl-prolyl-lysin-4-nitranilide-acetate (Roche) in the final concentration of 125 μM in a buffer consisting of 50 mM Tris-HCl, pH 7.4, 100 mM NaCl, 5 mM of CaCl2 or 5 mM of EGTA, and 150 nM of [Glu] plasminogen (Calbiochem). The reaction was preincubated with or without 2.5 μM S100A4 at 24 C° for 1 h in 96-well plates. The reaction was initiated by addition of t-PA (Calbiochem) up to 5 nM concentration, final volume 100 μl. Kinetic of substrate hydrolysis was measured at 2 min intervals at 405 nm in Spectramax Plus 384 spectrophotometer (Molecular Devices). Analysis of kinetics curves (Vmax, time to Vmax, and initial slope of kinetic data converted to A405 versus time^2) was performed with the help of Softmax PRO program (Molecular Devices).
Kinetics of plasminogen to plasmin conversion consists of three parts. As shown in FIG. #3 curves 1 and 2 for t-PA, during first 1500 s the reaction is second order that corresponds to conversion of plasminogen to plasmin and consequent cleavage of chromogenic substrate by plasmin. The second part of reaction is linear, for which Vmax can be calculated. It starts after total conversion of plasminogen to plasmin and corresponds to cleavage of chromogenic substrate by plasmin with constant rate. In the third part of reaction, after 2700 s, the reaction is slowing down that corresponds to depletion of chromogenic substrate and finally the reaction reaches a plateau when all substrate is cleaved. As follows from the comparison of curves 1 and 2, t-PA along converted plasminogen to plasmin equally efficiently in the presence or absence of calcium. Neither conversion of plasminogen to plasmin took place in the absence of t-PA no S110A4 induced such conversion by itself, curves 5 and 6. In the presence of S100A4 linear part of reaction starts substantially earlier, which means that total conversion of plasminogen to plasmin was accelerated. Kinetic parameters for t-PA along and for combination of t-PA with S100A4 are represented in Table 4. […] S100A4 accelerated conversion of plasminogen to plasmin in calcium independent manner, curves 3 and 4.

S100A4 [5] = molecular target: T1, S100A4; test: Fluorescence polarization assay of peptide binding with S100A4; conditions: for change of fluorescence polarization upon adding S100A4: same procedure and conditions as for SEQ ID NO 7
Procedure: The following working buffers have been prepared:
TBS-EGTA: 10 mM TRIS buffer containing 150 mM NaCl, 0.05% bovine serum albumine (BSA), 1 mM EGTA
TBS-Ca: 10 mM TRIS buffer containing 150 mM NaCl, 0.05% bovine serum albumine (BSA), 1 mM CaCl2
10 mM solution of peptide SEQ ID NO 7 in DMSO was diluted with in either TBS-EGTA or TBS-Ca to obtain final peptide concentration 20 nM. Samples of these peptide solutions were placed in 384 well plate (Costar No. 3710), 45 microliters per well. Fluorescence polarization of such samples was determined using Perkin Elmer Wallac EnVision 2100 Multilabel Reader equipped with excitation filter 485 nm and emission filters 535 nm for each channel.
S100A4 has been diluted by either TBS-EGTA or by TBS-Ca to obtain a series of solutions of such concentrations that after adding 5 microliters each solution to 45 microliter peptide samples the final concentration of S100A4 was one of following: 0, 10, 30, 100, 300, 1000, 3000, or 10000 nM. Each sample was prepared in triplicate. The samples were mixed carefully while adding the protein to the peptide, and then they were incubated for 1 h at room temperature. The fluorescence polarization of the samples was determined using the same conditions as for the peptide samples before adding S100A4, and the change of fluorescence polarization of the peptide SEQ ID NO 7 upon adding S100A4 was calculated individually for each sample. The results, average of triplicates, are presentsd on the FIG. 6. The apparent binding constant of peptide SEQ ID NO 7 binding to S100A4 is 236 nM.
The same procedure and conditions have been applied to test binding of peptide SEQ ID NO 9, and peptide SEQ ID NO 10, to S100A4.

T1 sequence (P26447 whole entry): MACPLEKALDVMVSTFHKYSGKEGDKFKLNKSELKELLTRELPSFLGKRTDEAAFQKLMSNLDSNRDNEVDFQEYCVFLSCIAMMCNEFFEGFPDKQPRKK
T2 sequence (P00750 36-562): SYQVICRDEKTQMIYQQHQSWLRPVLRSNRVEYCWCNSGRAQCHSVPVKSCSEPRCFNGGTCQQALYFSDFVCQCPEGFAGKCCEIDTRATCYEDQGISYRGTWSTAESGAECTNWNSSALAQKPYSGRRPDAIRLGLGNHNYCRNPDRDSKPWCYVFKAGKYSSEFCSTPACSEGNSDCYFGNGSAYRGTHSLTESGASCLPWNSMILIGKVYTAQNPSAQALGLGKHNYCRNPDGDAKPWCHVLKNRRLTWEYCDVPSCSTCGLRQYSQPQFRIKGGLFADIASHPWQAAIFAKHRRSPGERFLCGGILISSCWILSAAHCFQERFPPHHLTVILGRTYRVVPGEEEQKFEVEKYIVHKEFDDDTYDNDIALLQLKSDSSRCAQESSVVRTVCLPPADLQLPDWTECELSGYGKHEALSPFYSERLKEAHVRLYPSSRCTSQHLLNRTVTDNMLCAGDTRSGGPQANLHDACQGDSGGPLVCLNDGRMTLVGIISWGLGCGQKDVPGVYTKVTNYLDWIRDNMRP

Compound: Ac-AGLREVYGASLASYMERW-NH2 [SEQ ID 6, Ac-AGLREVYGASLASYMERW-amide]
- inhibition of S100A4-induced formation of capillary-like tubes [1]: completely inhibit
- effect on S100A4 acceleration at 15 μM peptide (S100A4 [2]): totally neglected the effect of S100A4
- IC50 (S100A4 [2]): 6 µM

Compound: Fam-aGwremysalsASyverl-amide [SEQ ID NO 10]
- change of fluorescence polarization upon adding S100A4 (S100A4 [5]): No change of fluorescence polarization has been detected

Compound: Fam-aGlrevyGASlASymerw-amide [SEQ ID NO 9]
- change of fluorescence polarization upon adding S100A4 (S100A4 [5]): No change of fluorescence polarization has been detected

Now from value to compound, other results behind:

- Increase in t-PA activity ([3]; presence of EGTA): 1
Compound: t-PA: tissue type plasminogen activator (Calbiochem); basal reaction with plasminogen
- Vmax ([3]; plasminogen 3 nM to 3 μM, presence of EGTA): 1.18
- Km ([3]; plasminogen 3 nM to 3 μM, presence of EGTA, read-out: Km): 0.429 µM
- Km ([3]; plasminogen 3 nM to 3 μM, read-out: Km of the t-PA-mediated plasminogen conversion): 0.429 µM
- Vmax ([4]; Ca (5 mM CaCl2)): 7.152 ± 0.130 ΔA405/t(min) * 1000
- Slope (initial rate of plasmin generation) ([4]; Ca (5 mM CaCl2)): 0.078 ΔA405/t^2(min^2) * 1000 and 0.078 ± 0.007 ΔA405/t^2(min^2) * 1000
- Time to Vmax ([4]; Ca (5 mM CaCl2)): 2200 s and 2200 ± 69 s
- Vmax ([4]; EGTA (5 mM)): 8.589 ± 0.342 ΔA405/t(min) * 1000
- Slope (initial rate of plasmin generation) ([4]; EGTA (5 mM)): 0.080 ± 0.008 ΔA405/t^2(min^2) * 1000
- Time to Vmax ([4]; EGTA (5 mM)): 2102 ± 69 s

- effect on S100A4 acceleration at 15 μM peptide (S100A4 [2]): totally neglected the effect of S100A4
- IC50 (S100A4 [2]): 3.5 µM
Compound: CSCC[C@@H](NC(=O)[C@@H](CCC(=O)O)NC(=O)[C@@H](CCCNC(=N)N)NC(=O)[C@@H](Cc1c[nH]c2ccccc12)NC(=O)CNC(=O)[C@@H](C)NC(C)=O)C(=O)N[C@H](Cc1ccc(O)cc1)C(=O)N[C@H](CO)C(=O)N[C@H](C)C(=O)N[C@H](CC(C)C)C(=O)N[C@H](CO)C(=O)N[C@@H](C)C(=O)N[C@@H](CO)C(=O)N[C@H](Cc1ccc(O)cc1)C(=O)N[C@@H](C(=O)N[C@H](CCC(=O)O)C(=O)N[C@H](CCCNC(=N)N)C(=O)N[C@H](CC(C)C)C(N)=O)C(C)C [SEQ ID 38, Ac-aGwremysalsASyverl-amide] (HELM PEPTIDE1{[ac].[dA].G.[dW].[dR].[dE].[dM].[dY].[dS].[dA].[dL].[dS].A.S.[dY].[dV].[dE].[dR].[dL].[am]}$$$$V2.0)

- Kd (S100A4 [5]; 20 nM peptide, S100A4 0-10000 nM, 1 h room temperature, TBS-EGTA or TBS-Ca, read-out: apparent binding constant of peptide binding to S100A4): 0.236 µM
Compound: CSCC[C@H](NC(=O)[C@H](Cc1ccc(O)cc1)NC(=O)[C@H](CO)NC(=O)[C@H](C)NC(=O)[C@H](CC(C)C)NC(=O)[C@H](CO)NC(=O)[C@H](C)NC(=O)CNC(=O)[C@H](Cc1ccc(O)cc1)NC(=O)[C@@H](NC(=O)[C@H](CCC(=O)O)NC(=O)[C@H](CCCNC(=N)N)NC(=O)[C@H](CC(C)C)NC(=O)CNC(=O)[C@H](C)NC(=O)c1ccc2c(c1)C(=O)OC21c2ccc(O)cc2Oc2cc(O)ccc21)C(C)C)C(=O)N[C@@H](CCC(=O)O)C(=O)N[C@@H](CCCNC(=N)N)C(=O)N[C@@H](Cc1c[nH]c2ccccc12)C(N)=O [SEQ ID NO 7, Fam-AGLREVYGASLASYMERW-amide] (HELM PEPTIDE1{[O=C1OC2(c3ccc(O)cc3Oc3cc(O)ccc32)c2ccc(C(=O)[*:2])cc21].A.G.L.R.E.V.Y.G.A.S.L.A.S.Y.M.E.R.W.[am]}$$$$V2.0)
